B1: Ephrin type-B receptor 2 (Gallus gallus (Chicken)), P28693 (parent)
chain: MGPLWFCCLPLALLPLLAAVEETLMDSTTATAELGWMVHPPSGWEEVSGYDENMNTIRTYQVCNVFESSQNNWLRTKYIRRRGAHRIHVEMKFSVRDCSSIPNVPGSCKETFNLYYYESDFDSATKTFPNWMENPWMKVDTIAADESFSQVDLGGRVMKINTEVRSFGPVSKNGFYLAFQDYGGCMSLIAVRVFYRKCPRVIQNGAVFQETLSGAESTSLVAARGTCISNAEEVDVPIKLYCNGDGEWLVPIGRCMCRPGYESVENGTVCRGCPSGTFKASQGDEGCVHCPINSRTTSEGATNCVCRNGYYRADADPVDMPCTTIPSAPQAVISSVNETSLMLEWTPPRDSGGREDLVYNIICKSCGSGRGACTRCGDNVQFAPRQLGLTEPRIYISDLLAHTQYTFEIQAVNGVTDQSPFSPQFASVNITTNQAAPSAVSIMHQVSRTVDSITLSWSQPDQPNGVILDYELQYYEKNLSELNSTAVKSPTNTVTVQNLKAGTIYVFQVRARTVAGYGRYSGKMYFQTMTEAEYQTSVQEKLPLIIGSSAAGLVFLIAVVVIIIVCNRRRGFERADSEYTDKLQHYTSGHSTYRGPPPGLGVRLFVMTPGMKIYIDPFTYEDPNEAVREFAKEIDISCVKIEQVIGAGEFGEVCSGHLKLPGKREIFVAIKTLKSGYTEKQRRDFLSEASIMGQFDHPNVIHLEGVVTKSSPVMIITEFMENGSLDSFLRQNDGQFTVIQLVGMLRGIAAGMKYLADMNYVHRDLAARNILVNSNLVCKVSDFGLSRFLEDDTSDPTYTSALGGKIPIRWTAPEAIQYRKFTSASDVWSYGIVMWEVMSYGERPYWDMTNQDVINAIEQDYRLPPPMDCPNALHQLMLDCWQKDRNHRPKFGQIVNTLDKMIRNPNSLKAMAPLSSGVNLPLLDRTIPDYTSFNTVDEWLDAIKMSQYKESFASAGFTTFDIVSQMTVEDILRVGVTLAGHQKKILNSIQVMRAQMNQIQSVEV

Variants of: B1
Settings: with abl1_mouse Abl1, P00520
Chain of abl1_mouse Abl1, P00520 (P00520 whole entry): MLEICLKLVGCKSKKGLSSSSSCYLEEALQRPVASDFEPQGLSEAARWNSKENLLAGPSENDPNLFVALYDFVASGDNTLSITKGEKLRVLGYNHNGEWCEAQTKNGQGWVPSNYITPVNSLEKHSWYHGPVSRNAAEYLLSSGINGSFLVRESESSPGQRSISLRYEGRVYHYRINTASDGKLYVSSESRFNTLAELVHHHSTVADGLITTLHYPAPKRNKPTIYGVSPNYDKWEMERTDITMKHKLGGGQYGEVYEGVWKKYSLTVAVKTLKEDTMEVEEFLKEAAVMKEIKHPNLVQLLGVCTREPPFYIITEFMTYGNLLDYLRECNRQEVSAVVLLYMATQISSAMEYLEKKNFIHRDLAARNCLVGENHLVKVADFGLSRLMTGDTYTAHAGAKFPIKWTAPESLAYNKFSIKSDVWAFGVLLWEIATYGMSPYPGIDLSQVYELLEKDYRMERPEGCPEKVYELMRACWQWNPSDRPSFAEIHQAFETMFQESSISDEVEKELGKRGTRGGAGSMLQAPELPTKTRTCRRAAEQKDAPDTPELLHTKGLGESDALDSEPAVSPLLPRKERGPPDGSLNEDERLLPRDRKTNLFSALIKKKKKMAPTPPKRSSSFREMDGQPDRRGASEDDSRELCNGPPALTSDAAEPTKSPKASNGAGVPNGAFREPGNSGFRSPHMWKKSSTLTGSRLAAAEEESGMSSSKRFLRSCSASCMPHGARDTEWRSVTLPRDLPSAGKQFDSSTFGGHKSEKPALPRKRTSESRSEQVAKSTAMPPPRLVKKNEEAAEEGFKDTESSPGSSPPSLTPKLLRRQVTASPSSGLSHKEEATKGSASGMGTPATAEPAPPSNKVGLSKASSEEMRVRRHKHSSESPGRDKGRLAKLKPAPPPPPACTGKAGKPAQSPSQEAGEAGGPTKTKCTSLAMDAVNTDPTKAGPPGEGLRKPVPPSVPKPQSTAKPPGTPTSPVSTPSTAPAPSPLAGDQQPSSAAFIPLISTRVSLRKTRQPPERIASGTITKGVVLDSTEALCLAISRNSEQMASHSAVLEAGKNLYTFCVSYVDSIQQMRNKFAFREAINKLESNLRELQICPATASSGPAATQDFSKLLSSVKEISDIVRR

Row | effect of a mutation on the interaction | Variant
1 | decreasing interaction strength | Y620E
2 | disrupting interaction strength | Y614E;Y620E
3 | decreasing interaction strength | Y614E

Variants of: B1
Settings: with abl1_mouse Abl1, P00520
Remark: another data set of the same source

Row | effect of a mutation on the interaction | Variant
4 | decreasing interaction strength | Y614E;Y620E
